Experimental data taken from patent publication US20220308062A1, “METHODS FOR PREDICTING DRUG RESPONSIVENESS IN SAMPLES FROM CANCER SUBJECTS” (Board of Regents, The University of Texas System, priority 2019, published 2022).

B1: IL-11: cytokine, a member of the IL-6 cytokine family, used to treat PMA-stimulated U937 and THP-1 macrophages (protein, UniProt P20809 22-199, looked up)
Interleukin-11: PGPPPGPPRVSPDPRAELDSTVLLTRSLLADTRQLAAQLRDKFPADGDHNLDSLPTLAMSAGALGALQLPGVLTRLRADLLSYLRHVQWLRRAGGSSLKTLEPELGTLQARLDRLLRRLQLLMSRLALPQPPPDPPAPPLAPPSSAWGGIRAAHAILGGLHLTLDWAVRGLLLLKTRL

Tests used:
Format in all cases: cell-based, human
[1] = tested on: patient-derived organoids (PDOs); assay: Patient-derived organoid CellTiter-Glo cell viability; conditions: Homo sapiens, 72 h; read-out: reduction in cell viability
Description: Patient-derived organoids (PDOs). Tumor tissues were minced on ice into 1 mm^3 small pieces. Tumor pieces (˜20 μl in volume) were resuspended in 200 μl Matrigel and seeded into 24 well plates for 15 min until gel solidify, followed by culture in advanced DMEM/F12 medium supplemented with B27 and N2 (Thermo Fisher Scientific), 0.01% BSA (Roche), 100 units/m penicillin-streptomycin (Thermo Fisher Scientific), and others (Table 4) for 4-8 weeks to grow organoids. […] The CellTiter-Glo Luminescent Cell Viability assay was used to determine drug responsiveness.

[2] = tested on: PMA-stimulated U937; assay: Immunofluorescence of IL-11 treated U937; conditions: 25 ng/ml, 72 hr
Description: Immunofluorescence. PMA-stimulated U937 were cultured and treated with 25 ng/ml IL-11 over 72 hr. Cells were then fixed with 4% paraformaldehyde for 15 minutes. After fixation, cells were incubated with fluorescence conjugated primary antibody (CD14, CD86 and CD163) for 1 hour. Slides were mounted with mounting medium with DAPI and the images were taken with fluorescence microscope.

[3] = tested on: PMA-stimulated U937 and THP-1; assay: Western blot of IL-11 treated macrophages; conditions: serial dosages, 72 hr
Description: Western blot analysis. PMA-stimulated U937 and THP-1 were cultured and treated with serial dosages of IL-11 over 72 hr. Cell lysates were harvested using RIPA buffer. The concentration of protein lysates was determined by Pierce™ BCA Protein Assay Kit (Thermo fisher). Forty micrograms of the total protein extracts were separated by NuPAGE™ 4-12% Bis-Tris Protein Gels (Thermo fisher) and transferred to PVDF membrane. The membranes were then blocked with 5% of Blotting-Grade Blocker (BioRad) in TBST and probed using primary antibodies against pSTAT3, STAT3 and GAPDH (Cell Signaling Technology; 2118S). Membranes were incubated in HRP-linked secondary antibodies following dilution with TBST (1:5000) at room temperature for one hour. Blots were developed using Western Lightning Plus-ECL Chemiluminescent Reagents (Perkin Elmer, Waltham, Mass.) and Syngene G:BOX Imaging System.

Row | Molecule | cytotoxicity at 15 µM [1] [%] | CD163 (immunofluorescence) [2] | pSTAT3 (western blot) [3]
1 | N#CC[C@H](C1CCCC1)n1cc(-c2ncnc3[nH]ccc23)cn1 [ruxolitinib] | 10 to 20 |  | 
2 | B1 |  | up-regulated | up-regulated
